For four substances, percent of GASP input retained (% of GASP input) and percent of parent (% of wild-type GASP-2) results are on record in paper PMC3575409, “Identification of a Novel Protein-Protein Interaction Motif Mediating Interaction of GPCR-Associated Sorting Proteins with G Protein-Coupled Receptors” (PLoS ONE, 2013).

In test [1] the target is T1, GST-fused C-tail of the calcitonin receptor (residues 407–490).
T1 sequence (P30988 whole entry, species assumed, looked up): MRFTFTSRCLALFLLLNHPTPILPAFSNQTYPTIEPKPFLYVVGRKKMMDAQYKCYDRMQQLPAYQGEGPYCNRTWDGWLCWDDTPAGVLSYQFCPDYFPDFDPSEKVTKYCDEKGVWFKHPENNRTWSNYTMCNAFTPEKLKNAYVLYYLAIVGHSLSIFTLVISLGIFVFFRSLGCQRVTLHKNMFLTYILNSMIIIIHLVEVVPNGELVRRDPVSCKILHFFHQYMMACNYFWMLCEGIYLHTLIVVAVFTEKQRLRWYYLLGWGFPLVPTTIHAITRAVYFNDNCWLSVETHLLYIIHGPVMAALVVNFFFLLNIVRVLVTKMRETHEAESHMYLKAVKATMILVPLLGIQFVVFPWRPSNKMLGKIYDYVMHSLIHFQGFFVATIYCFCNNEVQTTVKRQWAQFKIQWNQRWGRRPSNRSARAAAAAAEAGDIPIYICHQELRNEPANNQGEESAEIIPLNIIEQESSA
Put plainly: pull-down; GST-fused receptor C-tails immobilized on glutathione-Sepharose beads, incubated with [35S]-labelled in vitro translated GASPs 1 h at 4°C; 20 mM Tris-HCl pH 7.4, 150 mM NaCl, 1 mM EDTA, 1 mM DTT, 10% glycerol, 1% Triton X-100; Phosphor-imager quantification.

For test [2], the target named is GST-fused C-tail of the histamine 2 receptor (residues 284–349). The description is as above.
Test [3] has as its target GST-fused C-tail of the insulin growth factor I receptor (residues 1268–1367). The description is as above.
The target in test [4] is GST-fused C-tail of the muscarinic M1 acetylcholine receptor (residues 414–460). Described as above.
Test [5] addresses GST-fused C-tail of the type III transforming growth factor β receptor (residues 805–849). The test is described as above.
The target of test [6] is GST-fused C-tail of the α isoform of the thromboxane A2 receptor (residues 304–343). The test is described as above.
The target in test [7] is GST-fused C-tail of the β1 adrenergic receptor (residues 373–477). Described as above.
For test [8], the target named is GST-fused C-tail of the δ-opioid receptor (residues 314–372). The test is described as above.
The target in test [9] is free GST. The test is described as above.
Test [10] has as its target GST-fused C-tail of the muscarinic M1 acetylcholine receptor (residues 414–460). The experiment in a line: GST pull-down. Particulars: parent: est. 100; read off a plot.
The target of test [11] is GST-fused C-tail of the β1 adrenergic receptor (residues 373–477). Put plainly: GST pull-down. Particulars: parent: est. 100; read off a plot.
In test [12] the target is T1, GST-fused C-tail of the calcitonin receptor (residues 407–490). Put plainly: GST pull-down. Particulars: parent: est. 100; read off a plot.

GPCR-associated sorting protein 2 (GASP-2), full-length (from UniProt Q96D09) SWFW>AAAA in first GASP motif; SWFW>AAAA in second GASP motif (GASP2-dm; residue numbers not printed), sequence (Q96D09 whole entry, change not shown): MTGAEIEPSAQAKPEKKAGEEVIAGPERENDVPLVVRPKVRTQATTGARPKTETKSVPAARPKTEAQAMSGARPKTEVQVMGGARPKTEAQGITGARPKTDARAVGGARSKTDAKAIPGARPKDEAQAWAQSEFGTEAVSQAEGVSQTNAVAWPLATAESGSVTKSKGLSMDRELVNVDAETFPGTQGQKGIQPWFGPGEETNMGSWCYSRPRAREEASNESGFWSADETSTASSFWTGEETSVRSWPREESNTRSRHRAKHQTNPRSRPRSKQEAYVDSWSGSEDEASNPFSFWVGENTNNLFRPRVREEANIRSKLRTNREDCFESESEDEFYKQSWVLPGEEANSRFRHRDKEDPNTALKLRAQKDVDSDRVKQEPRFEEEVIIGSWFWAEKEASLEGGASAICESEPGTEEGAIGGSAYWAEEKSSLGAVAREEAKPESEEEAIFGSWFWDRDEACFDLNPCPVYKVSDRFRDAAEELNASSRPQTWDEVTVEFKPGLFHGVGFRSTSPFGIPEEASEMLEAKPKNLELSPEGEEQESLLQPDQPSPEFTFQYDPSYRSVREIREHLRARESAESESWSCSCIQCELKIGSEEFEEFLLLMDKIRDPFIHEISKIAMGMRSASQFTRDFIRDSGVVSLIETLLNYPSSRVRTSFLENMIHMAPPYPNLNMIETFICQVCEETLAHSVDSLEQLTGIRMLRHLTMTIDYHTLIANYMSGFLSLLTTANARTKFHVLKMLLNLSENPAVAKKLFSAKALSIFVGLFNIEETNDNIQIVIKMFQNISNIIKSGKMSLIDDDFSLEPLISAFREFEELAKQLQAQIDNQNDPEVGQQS
GASP-9, sequence (Q7L311 whole entry): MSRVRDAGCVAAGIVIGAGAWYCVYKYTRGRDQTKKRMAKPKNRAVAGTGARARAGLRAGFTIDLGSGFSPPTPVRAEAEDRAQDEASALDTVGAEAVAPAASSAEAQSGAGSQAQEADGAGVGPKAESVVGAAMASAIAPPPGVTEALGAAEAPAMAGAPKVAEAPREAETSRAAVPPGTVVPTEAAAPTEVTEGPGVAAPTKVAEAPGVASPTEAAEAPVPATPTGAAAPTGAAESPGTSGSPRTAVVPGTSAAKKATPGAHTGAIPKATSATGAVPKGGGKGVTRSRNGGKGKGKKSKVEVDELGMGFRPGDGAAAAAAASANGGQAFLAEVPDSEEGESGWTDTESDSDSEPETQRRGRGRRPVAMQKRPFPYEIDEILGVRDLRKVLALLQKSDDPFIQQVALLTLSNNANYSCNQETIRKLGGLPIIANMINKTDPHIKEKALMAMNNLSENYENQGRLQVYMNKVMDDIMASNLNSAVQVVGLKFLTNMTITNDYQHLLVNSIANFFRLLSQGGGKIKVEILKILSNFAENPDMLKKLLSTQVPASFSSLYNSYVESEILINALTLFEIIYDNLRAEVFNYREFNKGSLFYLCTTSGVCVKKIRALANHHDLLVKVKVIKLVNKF
GPCR-associated sorting protein 2 (GASP-2), full-length (from UniProt Q96D09) SWFW>AAAA in second GASP motif (GASP2-m2; residue numbers not printed), sequence (Q96D09 whole entry, change not shown): as the sequence (Q96D09 whole entry, change not shown) above
GPCR-associated sorting protein 2 (GASP-2), full-length (from UniProt Q96D09) SWFW>AAAA in first GASP motif (GASP2-m1; residue numbers not printed), sequence (Q96D09 whole entry, change not shown): as above
GST-fused C-tail of the histamine 2 receptor (residues 284–349), sequence (P25021 284-349): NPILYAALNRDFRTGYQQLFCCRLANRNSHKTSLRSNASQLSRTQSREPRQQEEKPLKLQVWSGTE
GST-fused C-tail of the type III transforming growth factor β receptor (residues 805–849), sequence (Q03167 805-849): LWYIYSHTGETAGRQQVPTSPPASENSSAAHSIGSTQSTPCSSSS
GST-fused C-tail of the insulin growth factor I receptor (residues 1268–1367), sequence (P08069 1268-1367): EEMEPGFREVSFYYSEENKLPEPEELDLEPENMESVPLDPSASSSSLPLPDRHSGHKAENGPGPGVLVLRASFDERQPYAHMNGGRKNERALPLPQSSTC

As for “GASP-9 (from UniProt Q7L311 1-632) (natural protein)”, the percent of GASP input retained (% of GASP input) in test [1] is 2; in [2] it was 2; in test [3], less than 1; in test [4], 2; in test [5], less than 1; in test [6], 2. In addition, the percent of GASP input retained (% of GASP input) is 2 in [7], 2 in [8] and less than 1 in test [9].
As for “GPCR-associated sorting protein 2 (GASP-2), full-length (from UniProt Q96D09) SWFW>AAAA in first GASP motif (GASP2-m1; residue numbers not printed)”, the percent of parent (% of wild-type GASP-2) came to 24 in test [10] and 27 in test [11].
For “GPCR-associated sorting protein 2 (GASP-2), full-length (from UniProt Q96D09) SWFW>AAAA in first GASP motif; SWFW>AAAA in second GASP motif (GASP2-dm; residue numbers not printed)”, the percent of parent (% of wild-type GASP-2) in [12] stood at 20; in test [10] it was 5.5; in [11] it was 1.5.
With “GPCR-associated sorting protein 2 (GASP-2), full-length (from UniProt Q96D09) SWFW>AAAA in second GASP motif (GASP2-m2; residue numbers not printed)”, the percent of parent (% of wild-type GASP-2) was 20 in test [10] and 11 in [11].
